We go through 1 substance from publication doi:10.1101/351726.

The term Kd denotes a measure of binding affinity in units of concentration. Low values mean tighter binding, high ones weaker binding. A word on the stoichiometry N: it is the number of molecules, sites or subunits per partner or assembly.

The target of assay [1] is full-length MyD88 fused to GFP at the N-terminus (human) (UniProt Q99836). Briefly: single-molecule fluorescence brightness analysis.
Assay [2] shares this target. Briefly: photon counting histogram.

“full-length MyD88 fused to GFP at the N-terminus (from UniProt Q99836 1-296) (natural protein)”: in assay [1], the Kd is 120 nM and the stoichiometry N was above 80 GFP. The substance also showed a stoichiometry N in assay [2] above 100 proteins.
